According to PMC2396850:

Target: various tetraspanins
Assay: co-IP

B1: Tumour-associated antigen L6 (L6-Ag), endogenous (natural protein)
chain: MCYGKCARCIGHSLVGLALLCIAANILLYFPNGETKYASENHLSRFVWFFSGIVGGGLLMLLPAFVFIGLEQDDCCGCCGHENCGKRCAMLSSVLAALIGIAGSGYCVIVAALGLAEGPLCLDSLGQWNYTFASTEGQYLLDTSTWSECTEPKHIVEWNVSLFSILLALGGIEFILCLIQVINGVLGGICGFCCSHQQQYDC
For B1, the percent of the total L6-Ag co-immunoprecipitated (% of the total L6-Ag) was 10 to 15.
